Measured values: article PMC12871931, “The importin‐alpha superfamily engages in ethylene signaling by shuttling [sequence] INSENSITIVE 2 from the endoplasmic reticulum to the nucleus” (The Febs Journal, 2025)

Key:
[1] = tested on: EIN2C^479–1294; assay: In planta FLIM‐FRET, EIN2C^479–1294‐CER donor, IMPα‐YFP acceptors; format: cell-based, Arabidopsis thaliana; details: N. benthamiana epidermal leaf cells; for average fluorescence lifetime of the EIN2C^479‐1294‐CER donor: co‐expression, vs donor only, Kruskal‐Wallis and Dunn's test, 18–20 measurements
Source text: To further investigate the interaction between members of the IMPα superfamily and EIN2 in planta, we used in vivo fluorescence lifetime microscopy and Förster's resonance energy transfer (FLIM‐FRET). Accordingly, the C‐terminal part of EIN2 (EIN2C^479–1294) was fused to the fluorescent protein Cerulean (CER), serving as a donor, and the IMPα isoforms (IMPα1‐7) were fused to YELLOW FL[…] (YFP), serving as acceptors.
(§1) A modified version of a previously described procedure was used for the transient transformation of N. benthamiana. An overnight culture of agrobacteria was inoculated in DYT and incubated at 28°C one day before infiltration. Bacteria were then centrifuged at 4000 g and resuspended in infiltration medium (5% (w/v) Saccharose; 0.01% (w/v) MgSO4; 0.01% (w/v) Glucose; Acetosyringone 450 μM) to an OD600 of 0.4–0.8. Resuspended bacteria were kept on ice for 1–2 h prior to infiltration. For co‐infiltration, bacteria solutions were mixed in equal quantities, and Agrobacterium strain GV3101:p19 expressing the p19 silencing inhibitor was added to each mix. Infiltration of the bacteria solution was performed with a 1 mL syringe onto the abaxial side of 3‐ to 4‐week‐old plants. Plants were kept under continuous light before microscopy analysis. For ß‐estradiol inducible constructs, plants were sprayed on the abaxial side of infiltrated leaves with an estradiol solution (ß‐estradiol 20 μM; Tween‐20 0.1% (w/v)) prior to imaging.
Fluorescence lifetime imaging was performed using a protocol described previously. Fluorescence lifetime was measured at a Zeiss LSM 780 confocal microscope (40× water immersion objective, Zeiss C‐PlanApo, NA 1.2). For TCSPC, a PicoQuant Hydra Harp 400 (PicoQuant, Berlin, Germany) was used. Photon counting was performed with a picosecond resolution. Cerulean was excited with a 440 nm ([…], 32 MHz, PicoQuant, Berlin, Germany) pulsed polarized laser. Laser power at the objective lens was adjusted to ~2.2 μW in N. benthamiana experiments. […] Photons were detected in both donor and acceptor channels simultaneously with Tau‐SPADs (PicoQuant, Berlin, Germany). […] Internal response functions for each laser were determined by measuring the fluorescence decay of quenched Atto425 in saturated KI, using the same hardware settings as for the FRET pair of interest. Fluorescence lifetime images were acquired in the cytosol, ER, or nucleus in donor‐only samples and samples with IMPα1‐4 and IMPα7. […]
The fluorescence decays were fitted using a previously reported method with minor modifications.
The fluorescence decays of selected ROIs in the FLIM image were analyzed with the SymPhoTime FLIM analysis software (SymPhoTime 64, version 2.4; PicoQuant, Berlin, Germany). […]

[2] = tested on: N. benthamiana epidermal leaf cells; assay: Confocal fluorescence microscopy, subcellular localization; format: cell-based; details: Cerulean fusion, transiently transformed N. benthamiana epidermal leaf cells
Procedure: as §1
For fluorescence imaging, a Zeiss LSM 780 confocal microscope (40× water immersion objective, Zeiss C‐PlanApo, NA 1.2) was used. YFP was excited at 514 nm and Cerulean at 458 nm. Signal recording of each fluorophore was done within its maximum emission peak while avoiding auto‐fluorescence above 650 nm. […]

[3] = molecular target: ΔIBB_IMPα1 (Arabidopsis thaliana, UniProt Q96321); format: binding
Source text: Next, we used biolayer interferometry (BLI) with an Octet K2 instrument (Fortè Bio, Dallas, USA) to substantiate and further delineate the binding interactions between the IMPα superfamily and the EIN2‐NLS motif. BLI measures slight changes in reflected light at a sensor surface upon the formation of molecular complexes. Specifically, it monitors interference patterns of white light, which are reflected from two different surfaces: an internal reference layer and a layer of biomolecules immobilized on a biosensor tip.
In these binding assays, IMPα1 lacking the IBB domain (ΔIBB_IMPα1) and IMPα4 were selected as representatives of the IMPα superfamily. Prior to their interaction studies with different EIN2 CEND‐NLS probes, both importins were biotinylated with the Biotin‐PEG4‐NHS ester Protein Labeling Kit from Jena Bioscience (Jena, Germany) and immobilized onto streptavidin‐coated biosensor tips (Fig. 5).
Curve fitting of the BLI sensorgrams was tested with different binding models. […] This model assumes analyte binding at two independent ligand sites at the IMPα immobilized on the biosensor surface. Furthermore, each ligand site binds the analyte independently and with a different rate constant. […]

Sequence of ΔIBB_IMPα1 (Q96321 whole entry, stated change not applied): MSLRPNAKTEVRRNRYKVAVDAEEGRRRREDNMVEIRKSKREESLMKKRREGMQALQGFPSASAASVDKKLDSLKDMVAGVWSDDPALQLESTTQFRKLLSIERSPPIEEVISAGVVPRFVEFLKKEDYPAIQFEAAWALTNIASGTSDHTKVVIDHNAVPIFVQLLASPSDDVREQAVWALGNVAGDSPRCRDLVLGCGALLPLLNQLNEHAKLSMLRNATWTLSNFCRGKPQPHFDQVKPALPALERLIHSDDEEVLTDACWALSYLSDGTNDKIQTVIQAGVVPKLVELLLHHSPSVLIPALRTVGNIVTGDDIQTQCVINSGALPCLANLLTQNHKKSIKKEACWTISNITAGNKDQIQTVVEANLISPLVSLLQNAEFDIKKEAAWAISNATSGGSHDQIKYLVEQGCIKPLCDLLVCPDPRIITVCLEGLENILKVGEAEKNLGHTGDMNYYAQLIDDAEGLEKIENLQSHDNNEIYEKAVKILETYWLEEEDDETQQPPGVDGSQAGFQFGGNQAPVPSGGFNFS

B1: IMPα7‐YFP: A. thaliana IMPα7 fused to YFP, FRET acceptor (protein)
chain: MKGGETMSVRRSGYKAVVDGVGGRRRREDDMVEIRKAKREESLLKKRREALPHSPSADSLDQKLISCIWSDERDLLIEATTQIRTLLCGEMFNVRVEEVIQAGLVPRFVEFLTWDDSPQLQFEAAWALTNIASGTSENTEVVIDHGAVAILVRLLNSPYDVVREQVVWALGNISGDSPRCRDIVLGHAALPSLLLQLNHGAKLSMLVNAAWTLSNLCRGKPQPPFDQVSAALPALAQLIRLDDKELLAYTCWALVYLSDGSNEKIQAVIEANVCARLIGLSIHRSPSVITPALRTIGNIVTGNDSQTQHIIDLQALPCLVNLLRGSYNKTIRKEACWTVSNITAGCQSQIQAVFDADICPALVNLLQNSEGDVKKEAAWAICNAIAGGSYKQIMFLVKQECIKPLCDLLTCSDTQLVMVCLEALKKILKVGEVFSSRHAEGIYQCPQTNVNPHAQLIEEAEGLEKIEGLQSHENNDIYETAVKILETYWMEEEEEEDQEQQDMIYFPVDNFANMPTSSGTLSEMHCGP
modifications: left off: YFP, end not stated, kept
notes: A. thaliana IMPα7 fused to YFP, FRET acceptor
**Q.** For B1, which “average fluorescence lifetime of the EIN2C^479‐1294‐CER donor” value [1] is on record?
**A.** The value was “significant reduction”.

B2: IMPα5: A. thaliana IMPα5 fused to YFP, FRET acceptor (protein)
chain: MSLRPSTKTEIRRIRYKVSVDAEEGRRRREDFLVEIRKSKRNENLMKKRRVKVLPPDYKLISNDPFESLLEIANMITGVFSDDPSLQLEYTTRFRVVLSFDRSPPTDNVIKSGVVPRFVEFLKKDDNPKLQFEAAWALTNIASGASEHTKVVIDHGVVPLFVQLLASPDDDVREQAIWGLGNVAGDSIQCRDFVLNSGAFIPLLHQLNNHATLSILRNATWTLSNFFRGKPSPPFDLVKHVLPVLKRLVYSDDEQVLIDACWALSNLSDASNENIQSVIEAGVVPRLVELLQHASPVVLVPALRCIGNIVSGNSQQTHCVINCGVLPVLADLLTQNHMRGIRREACWTISNITAGLEEQIQSVIDANLIPSLVNLAQHAEFDIKKEAIWAISNASVGGSPNQIKYLVEQNCIKALCDILVCPDLRIILVSLGGLEMILIAGEVDKNLRDVNCYSQMIEDAEGLEKIENLQHHGNNEIYEKAVKILQTYGLVEEDGRLVEEEDEGGDGCSHPEFQFDFSR
modifications: left off: His6, C-terminal, state not stated
notes: A. thaliana IMPα5 fused to YFP, FRET acceptor
**Q.** Which results are given for B2?
**A.** average fluorescence lifetime of the EIN2C^479‐1294‐CER donor [1]: only slightly, but not significantly reduced; FRET efficiency ([1]; mean, EIN2C^479–1294‐CER donor / IMPα‐YFP acceptor): 1%

B3: IMPα6‐YFP: A. thaliana IMPα6 fused to YFP, FRET acceptor (protein)
chain: MSYKPSAKTEVRRNRYKVSVDADEGRRRREDNMVEIRKNKREENLQKKRREGFNPSMASQPGQDFSSSLPTETRLENIQQMIAGVMSEDRDLQLEATASFRRLLSIERNPPINEVVQSGVVPHIVQFLSRDDFTQLQFEAAWALTNIASGTSENTRVIIDSGAVPLFVKLLSSASEEVREQAVWALGNVAGDSPKCRDHVLSCEAMMSLLAQFHEHSKLSMLRNATWTLSNFCRGKPQPAFEQTKAALPALERLLHSTDEEVLTDASWALSYLSDGTNEKIQTVIDAGVIPRLVQLLAHPSPSVLIPALRTIGNIVTGDDIQTQAVISSQALPGLLNLLKNTYKKSIKKEACWTISNITAGNTSQIQEVFQAGIIRPLINLLEIGEFEIKKEAVWAISNATSGGNHDQIKFLVSQGCIRPLCDLLPCPDPRVVTVTLEGLENILKVGEAEKNLGNTGNDNLYAQMIEDADGLDKIENLQSHDNNEIYEKAVKILESYWAADDEEEDIGGVDAPENVQSSGFQFGNQSGNAPTGGFNFG
modifications: left off: YFP, end not stated, kept
notes: A. thaliana IMPα6 fused to YFP, FRET acceptor
**Q.** Which “average fluorescence lifetime of the EIN2C^479‐1294‐CER donor” value [1] does the source give for B3 here?
**A.** The value was “significant reduction”.

B4: EIN2C^479–1294: C‐terminal part of EIN2 fused to Cerulean (CER), FRET donor (protein)
chain: NALSYPSVQEEEIERTETRRNEDESIVRLESRVKDQLDTTSVTSSVYDLPENILMTDQEIRSSPPEERELDVKYSTSQVSSLKEDSDVKEQSVLQSTVVNEVSDKDLIVETKMAKIEPMSPVEKIVSMENNSKFIEKDVEGVSWETEEATKAAPTSNFTVGSDGPPSFRSLSGEGGSGTGSLSRLQGLGRAARRHLSAILDEFWGHLYDFHGQLVAEARAKKLDQLFGTDQKSASSMKADSFGKDISSGYCMSPTAKGMDSQMTSSLYDSLKQQRTPGSIDSLYGLQRGSSPSPLVNRMQMLGAYGNTTNNNNAYELSERRYSSLRAPSSSEGWEHQQPATVHGYQMKSYVDNLAKERLEALQSRGEIPTSRSMALGTLSYTQQLALALKQKSQNGLTPGPAPGFENFAGSRSISRQSERSYYGVPSSGNTDTVGAAVANEKKYSSMPDISGLSMSARNMHLPNNKSGYWDPSSGGGGYGASYGRLSNESSLYSNLGSRVGVPSTYDDISQSRGGYRDAYSLPQSATTGTGSLWSRQPFEQFGVAERNGAVGEELRNRSNPINIDNNASSNVDAEAKLLQSFRHCILKLIKLEGSEWLFGQSDGVDEELIDRVAAREKFIYEAEAREINQVGHMGEPLISSVPNCGDGCVWRADLIVSFGVWCIHRVLDLSLMESRPELWGKYTYVLNRLQGVIDPAFSKLRTPMTPCFCLQIPASHQRASPTSANGMLPPAAKPAKGKCTTAVTLLDLIKDVEMAISCRKGRTGTAAGDVAFPKGKENLASVLKRYKRRLSNKPVGMNQDGPGSRKNVTAYGSLG
modifications: left off: Cerulean, end not stated, kept
notes: C‐terminal part of EIN2 fused to Cerulean (CER), FRET donor
**Q.** For B4, which subcellular localization [2] is on record?
**A.** The subcellular localization was “localized in the nucleus, ER, and cytoplasm”.

B5: GB1‐AtEIN2C^1215–1281: CEND construct containing a GB1‐tag to enhance solubility, produced recombinantly in E. coli (protein)
chain: {GB1 tag}-KGKCTTAVTLLDLIKDVEMAISCRKGRTGTAAGDVAFPKGKENLASVLKRYKRRLSNKPVGMNQDGP
modifications: not fully specified
notes: CEND construct containing a GB1‐tag to enhance solubility, produced recombinantly in E. coli
**Q.** What does the source list for B5?
**A.** Hill coefficient ([3]; BLI dose response, ΔIBB_IMPα1): 0.94 ± 0.06; Kd ([3]; BLI, ΔIBB_IMPα1 biotinylated on streptavidin biosensor (15 μM in 100 mM Tris pH 7.0, 100 mM KCl, 0.01% Tween 20), room temperature, association 300 s, dissociation 300 s, 1:2 heterogeneous ligand model, n = 3, read-out: K d + SD): 8.8 ± 1.1 µM
